In publication PMC5962072, “Structural insights on the efficient catalysis of hydroperoxide reduction by Ohr: Crystallographic and molecular dynamics approaches” (PLoS ONE, 2018):

Target: Cys61 (UniProt position 61, AGYSACFIGAL)
Experiment: chemical modification
Settings: room temperature; Reduced (dithiol) protein after DTT treatment and desalting; no ligand.

Substance: Organic hydroperoxide resistance protein (Ohr, XfOhr) (Xylella fastidiosa)
- pKa: 5.92 ± 0.11
